Molecular target: SarR (Staphylococcus aureus, UniProt Q2FEJ8 SEQ:1-115)
Assay: footprint; protected region nt 81-108 within the 109-bp fragment
Conditions: tags: untagged, pET11b expressed in E. coli BL21(DE3)pLysS; chain copies: 2 (inferred)

Sequence of SarR (Q2FEJ8 whole entry, the tested form may be a part): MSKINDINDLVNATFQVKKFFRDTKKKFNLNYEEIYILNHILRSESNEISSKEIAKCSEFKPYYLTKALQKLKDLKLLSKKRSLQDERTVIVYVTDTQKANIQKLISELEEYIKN

B1: sarA P2 protected region (nt 81-108) (dsDNA)
DNA 1: TAAATTAATGTTATTTTTTAATAATTTA
DNA 2: TAAATTATTAAAAAATAACATTAATTTA
  binding result: binds

Source: patent publication US20050239704, “Compositions and methods for affecting virulence determinants in bacteria” (published 2005)
